Source: PMC12209437, “Tailoring a novel colorectal cancer stem cell-targeted therapy by inhibiting the SMYD3/c-MYC axis” (Signal Transduction and Targeted Therapy, 2025)

B1: P14 ext1 (E42EENFYQQQ50) (peptide)
peptide: EEENFYQQQ
notes: numbers count on the 454-residue isoform; source: bought: custom purchased from Thermo Fisher Scientific
B2: full-length HIS-tagged SMYD3 recombinant protein (enzyme, human, UniProt Q9H7B4 1-428, looked up)
chain: MEPLKVEKFATAKRGNGLRAVTPLRPGELLFRSDPLAYTVCKGSRGVVCDRCLLGKEKLMRCSQCRVAKYCSAKCQKKAWPDHKRECKCLKSCKPRYPPDSVRLLGRVVFKLMDGAPSESEKLYSFYDLESNINKLTEDKKEGLRQLVMTFQHFMREEIQDASQLPPAFDLFEAFAKVICNSFTICNAEMQEVGVGLYPSISLLNHSCDPNCSIVFNGPHLLLRAVRDIEVGEELTICYLDMLMTSEERRKQLRDQYCFECDCFRCQTQDKDADMLTGDEQVWKEVQESLKKIEELKAHWKWEQVLAMCQAIISSNSERLPDINIYQLKVLDCAMDACINLGLLEEALFYGTRTMEPYRIFFPGSHPVRGVQVMKVGKLQLHQGMFPQAMKNLRLAFDIMRVTHGREHSLIEDLILLLEECDANIRAS
notes: SMYD3 (lysine methyltransferase SET and MYND Domain Containing 3), full length, from the plasmid pET28-MHL-SMYD3 (Addgene 32048); no species is printed for the Addgene plasmid; also called HIS-SMYD3; HIS-SMYD3 fusion protein; source: E. coli BL21 (DE3), purified (Dynabeads HIS-Tag Isolation and Pulldown)
B3: P14 ext2 (P36YFYCDEEENFYQQQQQSEL55) (peptide)
peptide: PYFYCDEEENFYQQQQQSEL
notes: as for B1
B4: FLAG c-MYC M3 (aa 1-165) (domain or fragment, human, UniProt P01106-2 1-165, looked up)
chain: MDFFRVVENQQPPATMPLNVSFTNRNYDLDYDSVQPYFYCDEEENFYQQQQQSELQPPAPSEDIWKKFELLPTPPLSPSRRSGLCSPSYVAVTPFSLRGDNDGGGGSFSTADQLEMVTELLGGDMVNQSFICDPDDETFIKNIIIQDCMWSGFSAAAKLVSEKLA
notes: c-MYC, human, residues 1-165 of the 454-residue form; amplified from p3xFLAG CMV14 c-MYC-WT, itself made from pcDNA3-c-MYC (Addgene 16011); Vector p3xFLAG-CMV14 (Sigma E7908); also called p3xFLAG CMV14 c-MYC-M3

Experiments:
Conditions in all cases: both partners purified
[1] = target: B2; test: pull-down; competition assay: 500 ng HIS-SMYD3 and 200 ng untagged full-length c-MYC, 1 h at 4 °C, with escalating doses (0, 1, 5, 25, 125 µM) of P14, P14ext1 or P14ext2; precipitated on histidine beads, immunoblot with anti-c-MYC and anti-HIS
[2] = target: T1, untagged human full-length c-MYC protein (human, UniProt P01106-2 1-454); test: pull-down; HIS-SMYD3 incubated with recombinant c-MYC or FLAG c-MYC fragments for 1 h at 4 °C, precipitated with Dynabeads HIS-Tag Isolation and Pulldown, washed in buffer A (20 mM Tris-HCl pH 8, 150 mM KCl, 5 mM MgCl2, 0.2 mM EDTA, 10% glycerol, 0.1% NP-40, 1 mM DTT), immunoblot
T1 construct: c-MYC, human, full length, untagged; also called c-MYC recombinant protein; untagged recombinant c-MYC protein; source: bought: Abcam ab169901, expressed in E. coli

[3] = target: B2; test: as above

binding result [1]	Binder	further results
binds	B1	–
–	B2	binding result [2]: binds
binds	B3	–
–	B4	binding result [3]: binds
